Measured values taken from patent US20220000984A1 (JIANGSU GENSCIENCES, published 2022).

biological target: GLP-1 receptor (GLP-1R) on HEK293/CRE-Luc/GLP1R cells (UniProt P43220 24-463, limits assumed); assay: cell-based or functional assay

Row | relative activity compared with dulaglutide (CRE-luciferase reporter, HEK293/CRE-Luc/GLP1R cells) [%] | Binder
1 | 40.4 | GLP1-L1-Fc2-L2-ST crosslinked with 20 kDa PEG (Fc fusion, 20 kDa PEG on the added C-terminal GGGAA (GGGAA-PEG joined by sortase A to the T of LPET)) HGEGTFTSDVSSYLEEQAAKEFIAWLVKGGGGGGGSGGGGSGGGGSAVECPPCPAPPVAGPSVFLFPPKPKDTLMISRTPEVTCVVVDVSHEDPEVQFNWYVDGVEVHNAKTKPREEQFNSTFRVVSVLTVVHQDWLNGKEYKCKVSNKGLPAPIEKTISKTKGQPREPQVYTLPPSREEMTKNQVSLTCLVKGFYPSDIAVEWESNGQPENNYKTTPPMLDSDGSFFLYSKLTVDKSRWQQGNVFSCSVMHEALHNHYTQKSLSLSPGGSGGGSGGGGSGGGGSLPETGGGAA
2 | 32.9 | GLP1-L1-Fc2-L2-ST crosslinked with 40 kDa PEG (Fc fusion, 40 kDa PEG on the added C-terminal GGGAA (GGGAA-PEG joined by sortase A to the T of LPET)) HGEGTFTSDVSSYLEEQAAKEFIAWLVKGGGGGGGSGGGGSGGGGSAVECPPCPAPPVAGPSVFLFPPKPKDTLMISRTPEVTCVVVDVSHEDPEVQFNWYVDGVEVHNAKTKPREEQFNSTFRVVSVLTVVHQDWLNGKEYKCKVSNKGLPAPIEKTISKTKGQPREPQVYTLPPSREEMTKNQVSLTCLVKGFYPSDIAVEWESNGQPENNYKTTPPMLDSDGSFFLYSKLTVDKSRWQQGNVFSCSVMHEALHNHYTQKSLSLSPGGSGGGSGGGGSGGGGSLPETGGGAA
3 | 98.1 | GLP1-L1-Fc2-L2-ST (Fc fusion) HGEGTFTSDVSSYLEEQAAKEFIAWLVKGGGGGGGSGGGGSGGGGSAVECPPCPAPPVAGPSVFLFPPKPKDTLMISRTPEVTCVVVDVSHEDPEVQFNWYVDGVEVHNAKTKPREEQFNSTFRVVSVLTVVHQDWLNGKEYKCKVSNKGLPAPIEKTISKTKGQPREPQVYTLPPSREEMTKNQVSLTCLVKGFYPSDIAVEWESNGQPENNYKTTPPMLDSDGSFFLYSKLTVDKSRWQQGNVFSCSVMHEALHNHYTQKSLSLSPGGSGGGSGGGGSGGGGSLPETG
